Laboratory results as given in patent US20250376519A1 (JIANGSU HENGRUI PHARMACEUTICALS, published 2025).

T1: human DLL3 (ACRO, DLL3-H52H4) (human, UniProt Q9NYJ7 27-492)
T1 construct: Bought
T1 sequence: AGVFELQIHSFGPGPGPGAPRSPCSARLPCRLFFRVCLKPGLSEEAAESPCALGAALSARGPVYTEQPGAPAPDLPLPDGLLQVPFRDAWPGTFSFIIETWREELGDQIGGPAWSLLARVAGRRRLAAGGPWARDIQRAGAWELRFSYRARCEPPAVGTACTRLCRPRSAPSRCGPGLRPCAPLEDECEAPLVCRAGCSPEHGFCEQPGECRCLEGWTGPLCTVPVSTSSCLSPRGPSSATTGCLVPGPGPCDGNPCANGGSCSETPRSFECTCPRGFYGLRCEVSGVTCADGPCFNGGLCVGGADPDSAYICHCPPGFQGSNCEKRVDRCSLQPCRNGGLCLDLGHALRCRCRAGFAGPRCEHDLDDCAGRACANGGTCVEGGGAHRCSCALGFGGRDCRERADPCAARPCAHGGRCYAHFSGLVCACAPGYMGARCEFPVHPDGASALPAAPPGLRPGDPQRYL

T2: human DLL3 on cells (human, UniProt Q9NYJ7 27-618)
T2 construct: Endogenous on H1184 and SHP77; Cell line is named under assay; also called H1184; DLL3/H82
T2 sequence: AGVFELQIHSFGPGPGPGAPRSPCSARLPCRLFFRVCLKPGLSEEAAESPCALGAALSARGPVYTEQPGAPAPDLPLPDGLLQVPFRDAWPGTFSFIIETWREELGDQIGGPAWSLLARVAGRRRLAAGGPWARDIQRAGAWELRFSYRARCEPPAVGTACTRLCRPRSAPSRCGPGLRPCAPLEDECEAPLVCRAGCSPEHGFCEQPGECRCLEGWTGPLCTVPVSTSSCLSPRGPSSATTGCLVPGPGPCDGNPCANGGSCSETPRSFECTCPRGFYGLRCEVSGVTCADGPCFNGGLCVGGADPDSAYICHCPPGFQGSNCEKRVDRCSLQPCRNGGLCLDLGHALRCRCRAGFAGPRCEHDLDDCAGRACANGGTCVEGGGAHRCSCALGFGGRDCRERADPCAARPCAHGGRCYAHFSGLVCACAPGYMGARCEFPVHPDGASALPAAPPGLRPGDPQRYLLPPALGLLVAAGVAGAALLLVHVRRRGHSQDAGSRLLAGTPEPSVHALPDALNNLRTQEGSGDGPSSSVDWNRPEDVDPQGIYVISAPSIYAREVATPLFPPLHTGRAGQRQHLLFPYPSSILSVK


Legend:
[1] = molecular target: T1, human DLL3 (ACRO, DLL3-H52H4); assay: SPR Biacore 8K, Ab captured on Protein A
Text: Test antibodies were affinity-captured with a Protein A biosensor chip (Cat. #29127556, Cytiva) for 18 seconds, and then the antigens human DLL3 (ACRO, DLL3-H52H4), cynomolgus monkey DLL3 (KACTUS, DLL-RM103), mouse DLL3 (KACTUS, DLL-MM103), human CD3D&3E (ACRO, CDD-H52W1), and monkey CD3D&3E (ACRO, CDD-C52W4) were allowed to flow through the surface of the chip for 180 seconds, followed by 600 seconds of dissociation. Reaction signals were detected in real time using a Biacore 8K (Cytiva) instrument to obtain association and dissociation curves. After the dissociation in each experimental cycle, the chip was washed and regenerated with a 10 mM glycine-hydrochloric acid solution (pH 1.5, Cat. #BR-1003-54, Cytiva). Data fitting was performed using a 1:1 Model.

[2] = molecular target: T2, human DLL3 on cells; assay: flow cytometry, DLL3/H82 cells; parameters: key to Emax: geometric mean fluorescence intensity (flow cytometry)
Experimental: The plates were centrifuged at 300 g for 5 min, and the supernatant was removed. Different concentrations of test antibodies were added at 100 μL/well. The plates were incubated in the dark in a refrigerator at 4° C. for 1 h. After 3 centrifugal washes at 300 g, working concentrations of APC anti-human IgG Fc (BioLegend, 410712) or PE F(ab′)2-goat anti-human IgG (invitrogen, H10104) were added. The plates were incubated in the dark in a refrigerator at 4° C. for 40 min. After 3 centrifugal washes at 300 g, the geometric mean fluorescence intensity was measured on an Invitrogen flow cytometer, and the EC50 values for the binding of the antibodies to DLL3-expressing cells were calculated.

Binder | Kd [1] | koff [1] | kon [1] | EC50 [2] | Emax [2]
hu30L2H2 (antibody, human IgG1, kappa) heavy: not shown light: DIVMTQSPDSLAVSLGERATINCKASENVGYVSWYQQKPGQPPKLLIYGASNRYTGVPDRFSGSGSATDFTLTISSLQAEDVAVYHCGQSYSYPLTFGQGTKLEIKRTVAAPSVFIFPPSDEQLKSGTASVVCLLNNFYPREAKVQWKVDNALQSGNSQESVTEQDSKDSTYSLSSTLTLSKADYEKHKVYACEVTHQGLSSPVTKSFNRGEC | 1.01 nM | 0.000921 s⁻¹ | 914000 M⁻¹ s⁻¹ | 0.61 nM | 4910
hu30L1H9 (antibody, human IgG1, kappa, V domains shown) VH: EVRLVQSGAEVKKPGASVKVSCKASGYTFTDYYMNWVRQAPGQSLEWIGIINPYTGDTSYNQKFRGRATLTVDKSASTAYMELSSLRSEDTAVYYCARYHYGPHLEGYFDVWGQGTTVTVSS VL: DIVMTQSPDSLAVSLGERATINCKASENVGYVSWYQQKPGQPPKLLIYGASNRYTGVPDRFSGSGSGTDFTLTISSLQAEDVAVYYCGQSYSYPLTFGQGTKLEIKR | 2.34 nM | 0.000981 s⁻¹ | 419000 M⁻¹ s⁻¹ | – | –
hu30L1H11 (antibody, human IgG1, kappa, V domains shown) VH: EVRLVQFGAVVKKPGASVKVSCKASGYTFTDYYMNWVRQAPGQSLEWMGIINPYTGDTSYNQKFRGRVTLTVDKSSSTAYMELSSLTSEDTAVYYCARYHYGPHLEGYFDVWGQGTTVTVSS VL: DIVMTQSPDSLAVSLGERATINCKASENVGYVSWYQQKPGQPPKLLIYGASNRYTGVPDRFSGSGSGTDFTLTISSLQAEDVAVYYCGQSYSYPLTFGQGTKLEIKR | 2.83 nM | 0.00117 s⁻¹ | 414000 M⁻¹ s⁻¹ | – | –
hu30L4H10 (antibody, human IgG1, kappa, V domains shown) VH: EVRLVQSGAEVKKPGASVKVSCKASGYTFTDYYMNWVRQSHGQSLEWMGIINPYTGDTSYNQKFRGRVTLTVDKSASTAYMELSSLRSEDTAVYYCARYHYGPHLEGYFDVWGQGTTVTVSS VL: DIQMTQSPSSLSASVGDRVTITCKASENVGYVSWYQQKPGKAPKLLIYGASNRYTGVPSRFSGSGSGTDFTLTISSLQPEDFATYYCGQSYSYPLTFGQGTKLEIKR | 2.16 nM | 0.000919 s⁻¹ | 427000 M⁻¹ s⁻¹ | – | –
hu30L5H8 (antibody, human IgG1, kappa, V domains shown) VH: EVRLVQFGAVVKKPGASVKVSCKASGYTFTDYYMNWVRQAPGQSLEWMGIINPYTGDTSYNQKFRGRVTLTVDKSSSTAYMELSSLRSEDTAVYYCARYHYGPHLEGYFDVWGQGTTVTVSS VL: DIQMTQSPSSLSASVGDRVTITCKASENVGYVSWYQQKPGKSPKLLIYGASNRYTGVPDRFSGSGSGTDFTLTISSLQPEDFATYYCGQSYSYPLTFGSGTKLEIKR | 2.54 nM | 0.00102 s⁻¹ | 400000 M⁻¹ s⁻¹ | – | –
hu30L5H10 (antibody, human IgG1, kappa, V domains shown) VH: EVRLVQSGAEVKKPGASVKVSCKASGYTFTDYYMNWVRQSHGQSLEWMGIINPYTGDTSYNQKFRGRVTLTVDKSASTAYMELSSLRSEDTAVYYCARYHYGPHLEGYFDVWGQGTTVTVSS VL: DIQMTQSPSSLSASVGDRVTITCKASENVGYVSWYQQKPGKSPKLLIYGASNRYTGVPDRFSGSGSGTDFTLTISSLQPEDFATYYCGQSYSYPLTFGSGTKLEIKR | 2.05 nM | 0.000949 s⁻¹ | 464000 M⁻¹ s⁻¹ | – | –
hu30L5H11 (antibody, human IgG1, kappa, V domains shown) VH: EVRLVQFGAVVKKPGASVKVSCKASGYTFTDYYMNWVRQAPGQSLEWMGIINPYTGDTSYNQKFRGRVTLTVDKSSSTAYMELSSLTSEDTAVYYCARYHYGPHLEGYFDVWGQGTTVTVSS VL: DIQMTQSPSSLSASVGDRVTITCKASENVGYVSWYQQKPGKSPKLLIYGASNRYTGVPDRFSGSGSGTDFTLTISSLQPEDFATYYCGQSYSYPLTFGSGTKLEIKR | 3.06 nM | 0.0012 s⁻¹ | 391000 M⁻¹ s⁻¹ | – | –

More lines, now with the values ahead:

Kd [1] | koff [1] | kon [1] | EC50 [2] | Emax [2] | Binder
0.919 nM | 0.000787 s⁻¹ | 857000 M⁻¹ s⁻¹ | 0.74 nM | 5870 | hu30L1H1 (antibody, human IgG1, kappa, V domains shown) VH: EVQLVQSGAEVKKPGASVKVSCKASGYTFTDYYMNWVRQAPGQSLEWMGIINPYNGDTSYNQKFRGRVTITVDKSASTAYMELSSLRSEDTAVYYCARYHYGPHLEGYFDVWGQGTTVTVSS VL: DIVMTQSPDSLAVSLGERATINCKASENVGYVSWYQQKPGQPPKLLIYGASNRYTGVPDRFSGSGSGTDFTLTISSLQAEDVAVYYCGQSYSYPLTFGQGTKLEIKR
1.32 nM | 0.00131 s⁻¹ | 989000 M⁻¹ s⁻¹ | 0.86 nM | 6050 | hu30L1H2 (antibody, human IgG1, kappa) heavy: not shown light: DIVMTQSPDSLAVSLGERATINCKASENVGYVSWYQQKPGQPPKLLIYGASNRYTGVPDRFSGSGSGTDFTLTISSLQAEDVAVYYCGQSYSYPLTFGQGTKLEIKRTVAAPSVFIFPPSDEQLKSGTASVVCLLNNFYPREAKVQWKVDNALQSGNSQESVTEQDSKDSTYSLSSTLTLSKADYEKHKVYACEVTHQGLSSPVTKSFNRGEC
1.99 nM | 0.00185 s⁻¹ | 929000 M⁻¹ s⁻¹ | 0.75 nM | 5560 | hu30L1H3 (antibody, human IgG1, kappa, V domains shown) VH: EVRLVQSGAEVKKPGASVKVSCKASGYTFTDYYMNWVRQAPGQSLEWMGIINPYQGDTSYNQKFRGRVTLTVDKSASTAYMELSSLRSEDTAVYYCARYHYGPHLEGYFDVWGQGTTVTVSS VL: DIVMTQSPDSLAVSLGERATINCKASENVGYVSWYQQKPGQPPKLLIYGASNRYTGVPDRFSGSGSGTDFTLTISSLQAEDVAVYYCGQSYSYPLTFGQGTKLEIKR
1.28 nM | 0.00116 s⁻¹ | 905000 M⁻¹ s⁻¹ | 0.57 nM | 5360 | hu30L1H4 (antibody, human IgG1, kappa, V domains shown) VH: EVRLVQSGAEVKKPGASVKVSCKASGYTFTDYYMNWVRQAPGQSLEWMGIINPYSGDTSYNQKFRGRVTLTVDKSASTAYMELSSLRSEDTAVYYCARYHYGPHLEGYFDVWGQGTTVTVSS VL: DIVMTQSPDSLAVSLGERATINCKASENVGYVSWYQQKPGQPPKLLIYGASNRYTGVPDRFSGSGSGTDFTLTISSLQAEDVAVYYCGQSYSYPLTFGQGTKLEIKR
1.38 nM | 0.00143 s⁻¹ | 1.04e+06 M⁻¹ s⁻¹ | 0.56 nM | 5750 | hu30L1H6 (antibody, human IgG1, kappa, V domains shown) VH: EVRLVQSGAEVKKPGASVKVSCKASGYTFTDYYMNWVRQAPGQSLEWMGIINPYNVDTSYNQKFRGRVTLTVDKSASTAYMELSSLRSEDTAVYYCARYHYGPHLEGYFDVWGQGTTVTVSS VL: DIVMTQSPDSLAVSLGERATINCKASENVGYVSWYQQKPGQPPKLLIYGASNRYTGVPDRFSGSGSGTDFTLTISSLQAEDVAVYYCGQSYSYPLTFGQGTKLEIKR
1.16 nM | 0.00115 s⁻¹ | 985000 M⁻¹ s⁻¹ | – | – | hu30L1H7 (antibody, human IgG1, kappa) heavy: not shown light: DIVMTQSPDSLAVSLGERATINCKASENVGYVSWYQQKPGQPPKLLIYGASNRYTGVPDRFSGSGSGTDFTLTISSLQAEDVAVYYCGQSYSYPLTFGQGTKLEIKRTVAAPSVFIFPPSDEQLKSGTASVVCLLNNFYPREAKVQWKVDNALQSGNSQESVTEQDSKDSTYSLSSTLTLSKADYEKHKVYACEVTHQGLSSPVTKSFNRGEC
0.658 nM | 0.000571 s⁻¹ | 867000 M⁻¹ s⁻¹ | 0.89 nM | 5740 | hu30L2H1 (antibody, human IgG1, kappa, V domains shown) VH: EVQLVQSGAEVKKPGASVKVSCKASGYTFTDYYMNWVRQAPGQSLEWMGIINPYNGDTSYNQKFRGRVTITVDKSASTAYMELSSLRSEDTAVYYCARYHYGPHLEGYFDVWGQGTTVTVSS VL: DIVMTQSPDSLAVSLGERATINCKASENVGYVSWYQQKPGQPPKLLIYGASNRYTGVPDRFSGSGSATDFTLTISSLQAEDVAVYHCGQSYSYPLTFGQGTKLEIKR
